Where “and” joins values, the source holds several entries; their conditions need not be identical. Equal values may be shown once.

For assay [1], the target named is Inactivated influenza B virus Hong Kong 5/72 (Influenza B virus Hong Kong 5/72).
Assay [2] shares this target. Briefly: lateral-flow sandwich, 9901 line + 2/3-Eu, 0.0021 HA units.
For assay [3] the target is unchanged. As to the kind of experiment: lateral-flow sandwich, 9901 line + 2/3-Eu, 0.0041 HA units.
The target is the same in assay [4]. Briefly: lateral-flow sandwich, 9901 line + 2/3-Eu, 0.0082 HA units.
For assay [5] the target is unchanged. As to the kind of experiment: lateral-flow sandwich, 9901 line + 2/3-Eu, 0.0123 HA units.
Assay [6] shares this target. As to the kind of experiment: lateral-flow sandwich, 9901 line + 2/3-Eu, 0.0164 HA units.
Assay [7] shares this target. Briefly: lateral-flow sandwich, 9901 line + 2/3-Eu, 0.0328 HA units.
Assay [8] has the same target. Briefly: lateral-flow sandwich, A line: 7304 striped + M4090913-Eu.
For assay [9], the target named is Inactivated influenza A virus Texas 1/77 (H3N2) (Influenza A virus Texas 1/77 (H3N2)). Briefly: lateral-flow sandwich, 7304 line + M4090913-gold, 0.21 HA/test.
The target is the same in assay [10]. As to the kind of experiment: lateral-flow sandwich, 7304 line + M4090913-gold, 0.41 HA/test.
For assay [11] the target is unchanged. As to the kind of experiment: lateral-flow sandwich, 7304 line + M4090913-gold, 0.82 HA/test.
The target is the same in assay [12]. As to the kind of experiment: lateral-flow sandwich, 7304 line + M4090913-gold, 1.64 HA/test.
For assay [13] the target is unchanged. Briefly: lateral-flow sandwich, 7304 line + M4090913-Eu, 0.021 HA units.
Assay [14] shares this target. Briefly: lateral-flow sandwich, 7304 line + M4090913-Eu, 0.041 HA units.
The target is the same in assay [15]. As to the kind of experiment: lateral-flow sandwich, 7304 line + M4090913-Eu, 0.082 HA units.
Assay [16] shares this target. Briefly: lateral-flow sandwich, 7304 line + M4090913-Eu, 0.123 HA units.
For assay [17] the target is unchanged. Briefly: lateral-flow sandwich, 7304 line + M4090913-Eu, 0.164 HA units.
The target is the same in assay [18]. Briefly: lateral-flow sandwich, 7304 line + M4090913-Eu, 0.328 HA units.
Assay [19] shares this target. As to the kind of experiment: lateral-flow sandwich, 7304 line + M4090913-Eu, 1 HA unit/test.
For assay [20] the target is unchanged. Briefly: lateral-flow sandwich, 7304 line + M4090913-Eu, 0.021 HA unit.
For assay [21] the target is unchanged. As to the kind of experiment: lateral-flow sandwich, 7304 line + M4090913-gold, 0.105 HA/test.
For assay [22] the target is unchanged. Briefly: lateral-flow sandwich, 7304 line + M4090913-Eu, 0.1 HA units/test.
The target is the same in assay [23]. As to the kind of experiment: lateral-flow sandwich, 7304 line + M4090913-Eu, 0.01 HA units/test.
Assay [24] has the same target. Briefly: lateral-flow sandwich, 7304 line + M4090913-Eu, 0.02 HA units/test.
For assay [25] the target is unchanged. As to the kind of experiment: lateral-flow sandwich, 7304 line + M4090913-Eu, 0.04 HA units/test.
Assay [26] has the same target. As to the kind of experiment: lateral-flow sandwich, 7304 line + M4090913-Eu, 1 HA unit/test, against 0 HA.
The target is the same in assay [27]. As to the kind of experiment: lateral-flow sandwich, 7304 line + M4090913-Eu, 0.1 HA units/test, against 0 HA.
The target is the same in assay [28]. As to the kind of experiment: lateral-flow sandwich, 7304 line + M4090913-Eu, 0.01 HA units/test, against 0 HA.
For assay [29] the target is unchanged. As to the kind of experiment: lateral-flow sandwich, 7304 line + M4090913-Eu, 0.02 HA units/test, against 0 HA.
The target is the same in assay [30]. As to the kind of experiment: lateral-flow sandwich, 7304 line + M4090913-Eu, 0.04 HA units/test, against 0 HA.
Assay [31] has as its target Inactivated influenza B virus Hong Kong 5/72 (Influenza B virus Hong Kong 5/72). Briefly: lateral-flow sandwich, B line: M2110171 striped + 2/3-Eu.
Assay [32] shares this target. Briefly: lateral-flow sandwich, M2110171 line + 2/3-gold, 0.021 HA/test.
Assay [33] shares this target. Briefly: lateral-flow sandwich, M2110171 line + 2/3-gold, 0.041 HA/test.
For assay [34] the target is unchanged. As to the kind of experiment: lateral-flow sandwich, M2110171 line + 2/3-gold, 0.082 HA/test.
Assay [35] shares this target. As to the kind of experiment: lateral-flow sandwich, M2110171 line + 2/3-gold, 0.164 HA/test.
Assay [36] shares this target. Briefly: lateral-flow sandwich, M2110171 line + 2/3-Eu, 0.0021 HA units.
Assay [37] shares this target. Briefly: lateral-flow sandwich, M2110171 line + 2/3-Eu, 0.0041 HA units.
Assay [38] has the same target. As to the kind of experiment: lateral-flow sandwich, M2110171 line + 2/3-Eu, 0.0082 HA units.
Assay [39] shares this target. Briefly: lateral-flow sandwich, M2110171 line + 2/3-Eu, 0.0123 HA units.
Assay [40] has the same target. As to the kind of experiment: lateral-flow sandwich, M2110171 line + 2/3-Eu, 0.0164 HA units.
Assay [41] shares this target. As to the kind of experiment: lateral-flow sandwich, M2110171 line + 2/3-Eu, 0.0328 HA units.
For assay [42] the target is unchanged. As to the kind of experiment: lateral-flow sandwich, M2110171 line + 2/3-Eu, 0.002 HA units/test.
Assay [43] has the same target. Briefly: lateral-flow sandwich, M2110171 line + 2/3-Eu, 0.004 HA units/test.
The target is the same in assay [44]. Briefly: lateral-flow sandwich, M2110171 line + 2/3-Eu, 0.008 HA units/test.
Assay [45] shares this target. As to the kind of experiment: lateral-flow sandwich, M2110171 line + 2/3-Eu, 0.016 HA units/test.
For assay [46] the target is unchanged. Briefly: lateral-flow sandwich, M2110171 line + 2/3-Eu, 0.032 HA units/test.
Assay [47] has the same target. As to the kind of experiment: lateral-flow sandwich, M2110171 line + 2/3-Eu, 0.002 HA units/test, against 0 HA.
Assay [48] shares this target. As to the kind of experiment: lateral-flow sandwich, M2110171 line + 2/3-Eu, 0.004 HA units/test, against 0 HA.
For assay [49] the target is unchanged. Briefly: lateral-flow sandwich, M2110171 line + 2/3-Eu, 0.008 HA units/test, against 0 HA.
Assay [50] has the same target. As to the kind of experiment: lateral-flow sandwich, M2110171 line + 2/3-Eu, 0.016 HA units/test, against 0 HA.
The target is the same in assay [51]. Briefly: lateral-flow sandwich, M2110171 line + 2/3-Eu, 0.032 HA units/test, against 0 HA.

Regarding anti-Flu B Medix 9901 antibody, the S/N ratio in assay [1] came out at 4.96. For the same substance, the fluorescence intensity (AVG) in assay [2] was determined as 1490; in [3], 1580; in assay [4], 2480; in [5] it was 2710; in assay [6] it was 5440; in assay [7], 9990.
For the substance anti-Flu A Medix 7304 antibody, in assay [8], the Signal/noise of test line turned out to be 4.8. Moreover, the Peak Intensity in assay [9] was 4.8 and 8.6; in [10] it was 13.2 and 9.1; in assay [11] it was 14.8 and 13.5; in assay [12], 26.4 and 22.5; in assay [21], 2.2 and 3.3. Besides, the Peak Intensity(avg) in assay [9] was found to be 6.7; in assay [10], 11.2; in [11], 14.1; in assay [12] it was 24.5; in [21], 2.8. Further, the fluorescence intensity (AVG) turned out to be 1270 in assay [13]; 1600 in [14]; 2280 in [15]; 3730 in assay [16]; 4080 in [17]; 8690 in assay [18]. In addition, the fluorescence signal in assay [19] is 21100 and 20000; in assay [22], 2550 and 2400; in assay [23], 794 and 776; in assay [24], 936 and 1040; in assay [25], 1420 and 1440. In addition, the fluorescence signal (AVG) in assay [19] worked out at 20500; in [22], 2470; in assay [23], 785; in assay [24], 987; in assay [25] it was 1430. For the same substance, the Signal/noise (S/N) ratio in assay [20] is 2.03. Also, the S/N in assay [26] came to 37.4; in assay [27] it was 4.5; in [28], 1.4; in assay [29], 1.8; in [30], 2.6.
With “Anti-Flu B nucleoprotein M2110171 (Fitzgerald) (antibody)”, the Signal/noise of test line in [31] turned out to be 437. The Peak Intensity was 2.8 and 2.7 in [32]; 4.8 and 4.6 in assay [33]; 7.3 and 8.2 in [34]; 14.4 and 13.3 in [35]. Besides, the Peak Intensity(avg) in assay [32] came out at 2.78; in assay [33], 4.67; in assay [34] it was 7.76; in assay [35], 13.8. The fluorescence intensity (AVG) was determined as 1380 in [36]; 2670 in assay [37]; 3590 in [38]; 6550 in [39]; 7130 in assay [40]; 12800 in assay [41]. Also, the Net peak height is 496 and 539 in assay [42]; 884 and 896 in [43]; 1630 and 1700 in [44]; 3330 and 2570 in assay [45]; 7200 and 6970 in [46]. The Net peak height (AVG) in [42] is 517; in [43], 890; in [44] it was 1670; in assay [45], 2950; in assay [46] it was 7090. The signal/noise in assay [47] was found to be 3.5; in assay [48], 6; in assay [49], 11.2; in assay [50], 19.8; in assay [51], 47.6.

(Values after patent US20080199851A1.)
